Laboratory results published in patent publication US20230295310A1 (ABCELLERA BIOLOGICS, published 2023).
Changes are numbered by the printed parent chain. Blank lines part the entries; values can stand above or below the binder they belong to.

What was measured:
[1] = biological target: T1, human CD3 expressed on cells (human, UniProt P07766 23-207; P04234 22-171; P09693 23-182); experiment: flow cytometry, 25 nM
T1 construct: whole, on cells; CD3 complex on Jurkat cells and on human primary T cells
T1 sequence (P07766 23-207, chain 1 of 3): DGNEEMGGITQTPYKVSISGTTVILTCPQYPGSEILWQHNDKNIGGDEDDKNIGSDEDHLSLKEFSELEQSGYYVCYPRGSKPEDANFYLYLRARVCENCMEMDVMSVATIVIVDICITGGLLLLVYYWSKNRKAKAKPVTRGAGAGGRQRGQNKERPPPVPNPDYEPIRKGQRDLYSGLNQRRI
T1 sequence (P04234 22-171, chain 2 of 3): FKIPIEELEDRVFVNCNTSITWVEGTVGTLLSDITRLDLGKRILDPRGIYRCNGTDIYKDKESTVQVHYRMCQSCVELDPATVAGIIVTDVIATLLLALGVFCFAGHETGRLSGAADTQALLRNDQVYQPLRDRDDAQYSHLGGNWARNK
T1 sequence (P09693 23-182, chain 3 of 3): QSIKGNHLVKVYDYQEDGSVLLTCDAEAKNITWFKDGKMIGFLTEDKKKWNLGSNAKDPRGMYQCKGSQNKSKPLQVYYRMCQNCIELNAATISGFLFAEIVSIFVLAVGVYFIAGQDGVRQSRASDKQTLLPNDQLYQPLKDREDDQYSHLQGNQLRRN
How it was run: (§1)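 Flow cytometric binding was measured after cells were incubated with antibody (25 nM, PBS+2% FBS) at 4° C for 30 minutes. Signals were normalized to isotype to yield FOI, with ≥10 scored positive.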

[2] = biological target: T1, human CD3 expressed on cells; experiment: flow cytometry, 25 nM, Jurkat cells (human primary T cells in c4 also <10)
Description: Purified antibodies were confirmed to bind CD3 expressed on cells using the CytoFLEX S or LX flow cytometers (Beckman Coulter). Antibodies were diluted to 25 nM in FACS buffer (PBS+2% FBS) and were incubated with CD3-expressing cells for 30 minutes at 4° C. […] The median fluorescence intensity of the binding signal for each antibody was normalized to the isotype control to obtain a fold over isotype value. An antibody with a fold over isotype (FOI) of ≥10 was considered to be positive for binding.

[3] = biological target: T2, cynomolgus monkey CD3 expressed on primary T cells (cynomolgus monkey, UniProt Q95LI5 22-198; Q95LI8 22-171; Q95LI7 23-181); experiment: flow cytometry, 25 nM, cyno primary T cells
T2 construct: whole, on cells; CD3 complex on purified cynomolgus monkey T cells; also called cyno CD3
T2 sequence (Q95LI5 22-198, chain 1 of 3): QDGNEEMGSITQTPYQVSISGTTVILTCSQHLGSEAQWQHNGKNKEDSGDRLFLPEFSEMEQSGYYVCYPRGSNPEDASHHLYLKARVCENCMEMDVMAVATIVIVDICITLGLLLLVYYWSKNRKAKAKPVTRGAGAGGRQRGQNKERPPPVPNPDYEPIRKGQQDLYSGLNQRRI
T2 sequence (Q95LI8 22-171, chain 2 of 3): as the sequence (P04234 22-171, chain 2 of 3) above, with I5V, N15K, I20V, S32T, D33N, I34N, T64A, S74N, V83L, H141R counted along it
T2 sequence (Q95LI7 23-181, chain 3 of 3): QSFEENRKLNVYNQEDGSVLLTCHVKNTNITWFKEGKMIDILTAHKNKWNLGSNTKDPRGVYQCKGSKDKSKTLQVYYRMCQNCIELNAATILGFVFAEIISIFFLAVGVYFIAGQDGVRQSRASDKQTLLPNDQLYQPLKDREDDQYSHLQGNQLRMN
How it was run: as §1

cynomolgus monkey CD3 = biological target: T3, cynomolgus monkey CD3 (cynomolgus monkey, UniProt Q95LI5 22-198; Q95LI8 22-171; Q95LI7 23-181); experiment: flow cytometry, cyno primary T cells
T3 construct: whole, on cells; CD3 on purified cynomolgus monkey CD3 pan T cells; also called cyno CD3; CD3 on cyno primary T cells
T3 sequence (Q95LI5 22-198, chain 1 of 3): as the sequence (Q95LI5 22-198, chain 1 of 3) above
T3 sequence (Q95LI8 22-171, chain 2 of 3): as the sequence (P04234 22-171, chain 2 of 3) above, with I5V, N15K, I20V, S32T, D33N, I34N, T64A, S74N, V83L, H141R counted along it
T3 sequence (Q95LI7 23-181, chain 3 of 3): as the sequence (Q95LI7 23-181, chain 3 of 3) above
How it was run: as §1

Human primary T Cell Binding (FOI) [1]: 0.694 FOI
binding result [2]: no binding (tested: FOI >=10 = positive)
binding result [3]: no binding (tested: FOI >=10 = positive)
B1: mAb 75 (antibody, V domains shown)
VH: QVQLVQSGAEVKKPGASVRVSCKASGYTFTGNYIHWVRLAPGQGLEWMGWINPKSGRTQFVQKFQGRVTMTRDTSITTVYMELSRLRSDDTAVYYCARLGDLLNFDYWGQGTLVTVSS
VL: not shown

Human primary T Cell Binding (FOI) [1]: 0.891 FOI
binding result [2]: no binding (tested: FOI >=10 = positive)
binding result [3]: no binding (tested: FOI >=10 = positive)
B2: mAb 45 (antibody, V domains shown)
VH: QAQLVQSGSELKKPGASVKVSCKASGYTFTKHSMNWVRQAPGQGLEWMGWINTNTGNPMYGQGFTGRFVFSLDTSMTTTYLQISSLKAEDTAIYYCAREGDYDLWRGFFNFDYWGQGTLVTVSS
VL: DIQMTQSPSSLSASVGDRVTITCRASQGIRNDLGWYQQKPGKAPKRLIYAASSLQSGVPSRFSGSGSGAEFTLTISSLQPEDFATYYCLQHNSYPRTFGQGTKVEIK

B3: mAb 320 (antibody, V domains shown)
VH: QVQLVESGGGVVQPGRSLRLSCAASGFTFRSYGMHWVRQAPGKGLEWVAIIWYDGSKKYYADSVKGRFTISRDNSKNILYLQMNSLRAEDTAVYYCARQEFNWNDGGYYYMDVWGKGTTVTVSS
VL: DIQLTQSPSFLSASVGDRVTITCRASQGISSYLDWCQQKPGKAPKLLIYAASTLQSGVPSRFSGSGSGTEFTLTISSLQPEDFATYYCQQLDNYPPTFGGGTKVEIK
notes: VH and VL only
binding result (cynomolgus monkey CD3): no binding (tested: FOI ≥10 = positive; 25 nM)

B4: mAb 314 (antibody, V domains shown)
VH: EVQLLESGGGLVQPGGSLRLSCAASGFTFSSYAMSWVRQAPGKGLEWVSVISGSGGNKNYADSVKGRFTISRDNSKNTLYLQMNSLRAEDTAVYYCAKKFSYYYYYMDVWGKGTTVTVSS
VL: SYELTQPLSVSVALGQTARITCGGNNIGSKDVHWYQQKPGQAPVLVIYRDSNRPSGIPERFSGSNSGNTATLTISRAQAGDEADYYCQVWDSRTAVFGGGTQLTAL
notes: VH and VL only
binding result (cynomolgus monkey CD3): no binding (tested: FOI ≥10 = positive; 25 nM)

B5: mAb 302 (antibody, V domains shown)
VH: EGQLLESGGGLVQPGGSLRLSCAASGFTFSRYAMSWIRQAPGKGLEWVSVINGSGGDKNYADSVRGRFTISRDNSKNSLYLLMNGLRVEDTAIYFCAKKFSYYYYYMDVWGKGTTVTVSS
VL: B4 VL with S29G
notes: VH and VL only
binding result (cynomolgus monkey CD3): no binding (tested: FOI ≥10 = positive; 25 nM)

B6: mAb 307 (antibody, V domains shown)
VH: EVHLLESGGGMVQPGGSRRLSCAASGFSFRNSAMSWVRQAPGKGLEWVSVIDGRGTTSNYADSVKGRFTISRDNSKNTLYLQMNSLRAEDTAVYYCAKKYSYYYYYMDVWGKGTTVTVSS
VL: B4 VL with Q102H
notes: VH and VL only
binding result (cynomolgus monkey CD3): no binding (tested: FOI ≥10 = positive; 25 nM)

B7: mAb 308 (antibody, V domains shown)
VH: EVQLLESGGGSVQPGGSLRLSCAASGFTFSSYAMNWVRQAPGKGLEWISIISGGRRTGITYYAASVKGRFTISRDNSKNTLYLQMNSLRAEDTAVYYCAKMYNYYYYYIDVWGKGTTVTVSS
VL: B4 VL with R93N
notes: VH and VL only
binding result (cynomolgus monkey CD3): no binding (tested: FOI ≥10 = positive; 25 nM)

B8: mAb 293 (antibody, V domains shown)
VH: EVQLLESGGDLVQPGGSLRLSCAASGFTFSRNAVSWVRQAPGRGLEWVSTISGRGDKTNYVDSVKGRFTISRDNSKNTLYLQMNSLRAEDTAVYYCTKMFSYYYYYMDVWGKGTTVTVSS
VL: B4 VL with R93S
notes: VH and VL only
binding result (cynomolgus monkey CD3): no binding (tested: FOI ≥10 = positive; 25 nM)

B9: mAb 317 (antibody, V domains shown)
VH: B4 VH with Y32F, S54N, G56D, N57K, F100Y
VL: B4 VL
notes: VH and VL only
binding result (cynomolgus monkey CD3): no binding (tested: FOI ≥10 = positive; 25 nM)

B10: mAb 295 (antibody, V domains shown)
VH: B4 VH with F27I, V50T, S54N, N57T, K58L, N59Y, A61T, F100Y
VL: B4 VL with D31N, R93S
notes: VH and VL only
binding result (cynomolgus monkey CD3): no binding (tested: FOI ≥10 = positive; 25 nM)

B11: mAb 305 (antibody, V domains shown)
VH: B4 VH with T28S, Y32F, M34L, S54N, F100Y
VL: B4 VL with S29G, T94A
notes: VH and VL only
binding result (cynomolgus monkey CD3): no binding (tested: FOI ≥10 = positive; 25 nM)

B12: mAb 298 (antibody, V domains shown)
VH: B5 VH with R65K
VL: B4 VL with S29G
notes: VH and VL only
binding result (cynomolgus monkey CD3): no binding (tested: FOI ≥10 = positive; 25 nM)

B13: mAb 291 (antibody, V domains shown)
VH: B4 VH with L18R, M34L, S52N, G53T, S54R, G56D, N57S, K58T, N59S, F100Y
VL: B4 VL
notes: VH and VL only
binding result (cynomolgus monkey CD3): no binding (tested: FOI ≥10 = positive; 25 nM)

B14: mAb 315 (antibody, V domains shown)
VH: B4 VH with L18R, S52N, G53T, S54R, G56D, N57S, K58T, N59S, F100Y
VL: B4 VL
notes: VH and VL only
binding result (cynomolgus monkey CD3): no binding (tested: FOI ≥10 = positive; 25 nM)

B15: mAb 309 (antibody, V domains shown)
VH: B4 VH with V2L, S54N, Y60H, F100Y
VL: B4 VL
notes: VH and VL only
binding result (cynomolgus monkey CD3): no binding (tested: FOI ≥10 = positive; 25 nM)

B16: mAb 299 (antibody, V domains shown)
VH: B4 VH with L18R, S30R, G53I, S54R, G56D, N57S, K58T, N59S, F100Y
VL: B4 VL
notes: VH and VL only
binding result (cynomolgus monkey CD3): no binding (tested: FOI ≥10 = positive; 25 nM)

B17: mAb 313 (antibody, V domains shown)
VH: B4 VH with V50A, S52T, G56R, N57T, K58T, N59Y, Y60F, A61V
VL: B4 VL with S92R, R93K, T94I
notes: VH and VL only
binding result (cynomolgus monkey CD3): no binding (tested: FOI ≥10 = positive; 25 nM)

Human primary T Cell Binding (FOI) [1]: 1.3 FOI
binding result [2]: no binding (tested: FOI >=10 = positive)
binding result [3]: no binding (tested: FOI >=10 = positive)
B18: mAb 48 (antibody, V domains shown)
VH: QVQLVQSGAEVKKPGASVKVSCKASGYTFTGYYIHWVRQAPGQGLEWMGWINPKSGNRNYAQKFQGRVTMTRDTSIDTAYMELTRLRSDDTAVYYCARIEQLVFDYWGQGTLVTVSS
VL: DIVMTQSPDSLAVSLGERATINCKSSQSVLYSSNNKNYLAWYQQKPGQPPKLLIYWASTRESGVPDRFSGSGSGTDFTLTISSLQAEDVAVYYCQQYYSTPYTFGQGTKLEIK

B19: mAb 321 (antibody, V domains shown)
VH: QVQLVESGGGVVQPGRSLRLSCVASGFTFRSFGMHWVRQAPGKGLEWVVVISNDGSHKYYVESVKGRFTISRDNSKNTLYLQMNSLRPEDTAVYYCARRDYYGSGMDVWGKGTTVTVSS
VL: SYELTQPPSVSVSPGQTARITCSGDALPKKYAYWYQQKSGQAPVLVIYEDRKRPSGIPERFSGSSSGTMATLTISGAQVEDEADYYCYSTDSSGNHAVFGGGTQLTAL
notes: VH and VL only
binding result (cynomolgus monkey CD3): no binding (tested: FOI ≥10 = positive; 25 nM)

B20: mAb 322 (antibody, V domains shown)
VH: B19 VH with F32Y, P88A
VL: B19 VL
notes: VH and VL only
binding result (cynomolgus monkey CD3): no binding (tested: FOI ≥10 = positive; 25 nM)

Human primary T Cell Binding (FOI) [1]: 0.842 FOI
binding result [2]: no binding (tested: FOI >=10 = positive)
binding result [3]: no binding (tested: FOI >=10 = positive)
B21: mAb 63 (antibody, V domains shown)
VH: QVQLVQSGAEVRKPGASVKVSCKASGYTFTGNHMHWVRQAPGQGLEWMGWINPKSGRTNFAQNFQGRVTMTRDTSISTAFMELSRLRSDDTAVYYCARMGDLLLFDFWGQGTLVTVSS
VL: not shown

Human primary T Cell Binding (FOI) [1]: 0.921 FOI
binding result [2]: no binding (tested: FOI >=10 = positive)
binding result [3]: no binding (tested: FOI >=10 = positive)
B22: mAb 76 (antibody, V domains shown)
VH: QVHLVQSGAEVKKPGASVKVSCKASGHTFTGFYVHWARQAPGQGLEWMGWIYSNSGRTSYSQKFQGRVAMTRDTSISTIYMDLSRLRSDDTAVYYCARLEQLVFDFWGQGTLVTVSS
VL: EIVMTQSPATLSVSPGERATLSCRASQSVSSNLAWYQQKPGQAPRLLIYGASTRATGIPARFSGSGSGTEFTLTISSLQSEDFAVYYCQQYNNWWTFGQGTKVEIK

Human primary T Cell Binding (FOI) [1]: 0.816 FOI
binding result [2]: no binding (tested: FOI >=10 = positive)
binding result [3]: no binding (tested: FOI >=10 = positive)
B23: mAb 64 (antibody, V domains shown)
VH: QVQLMPSGAEVKEPGASVKVSCKASGYTFTGYYMHWVRQAPGQGLEWMGWINPNSGRTSYAKNFQGRVTMTRDTSISTAYMELSRLRSDDTAVYYCARIEQLVFDYWGQGTLVTVSS
VL: not shown
